Like-named read-outs stand apart in the source and are kept apart here.
Legend:
[1] = target: Ld class I major histocompatibility complex molecule (30-5-7+ Ld) (mouse); assay: co-IP
[2] = target: Ld class I major histocompatibility complex molecule (30-5-7+ Ld) (mouse); assay: co-IP; remark: listed apart in the source

Chain of Ld class I major histocompatibility complex molecule (30-5-7+ Ld) (mouse) (P01897 25-362, one chain of several): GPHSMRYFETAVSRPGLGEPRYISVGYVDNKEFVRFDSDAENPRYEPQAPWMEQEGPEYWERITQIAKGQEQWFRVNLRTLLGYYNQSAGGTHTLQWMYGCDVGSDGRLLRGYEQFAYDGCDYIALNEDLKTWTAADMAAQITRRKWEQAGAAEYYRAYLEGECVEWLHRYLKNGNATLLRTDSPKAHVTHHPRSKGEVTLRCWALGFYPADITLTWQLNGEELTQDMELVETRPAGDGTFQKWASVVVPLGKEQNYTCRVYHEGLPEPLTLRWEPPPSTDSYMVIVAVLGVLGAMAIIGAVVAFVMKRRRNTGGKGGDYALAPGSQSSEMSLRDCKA

MCMV pp89 168-176 peptide
percent precipitable counts [1]: 98% | pellet cpm (bound peptide) [2]: 7630 cpm | percent precipitable counts [2]: 80%

Reference: PMC2118782
